Results reported in US20230348575A1.
Like-named read-outs stand apart in the source and are kept apart here.

What was measured:
[1] = target: RSV F peptides F85-93 and F249-258 presented to CD8+ T cells of BALB/c mice (RSV, A2 strain)
[2] = target: RSV F peptide 51-66 presented to CD4+ T cells of BALB/c mice (RSV, A2 strain)
[3] = target: RSV F peptides F85-93 and F249-258 presented to CD8+ T cells of BALB/c mice (RSV, A2 strain); remark: listed apart in the source
[4] = target: RSV F peptide 51-66 presented to CD4+ T cells of BALB/c mice (RSV, A2 strain); remark: listed apart in the source

Substance “Splenic T cells of unvaccinated BALB/c mice, day 49 (Example 7B, 10-1001) (cells without a defined receptor)” has a CD8+ CD4- splenic T cells: % cytokine-positive (IFNg+), intracellular cytokine staining [1] of 0.01% and a CD4+ CD8- splenic T cells: % cytokine-positive (TNFa+), intracellular cytokine staining [2] of 0%.
With “Splenic T cells of BALB/c mice vaccinated with A317 RNA (10 ug) with electroporation, day 49 (Example 7B, 10-1001) (cells without a defined receptor)” the CD8+ CD4- splenic T cells: % cytokine-positive (IFNg+), intracellular cytokine staining [1] was 0.85% and the CD4+ CD8- splenic T cells: % cytokine-positive (TNFa+), intracellular cytokine staining [2] was 0.05%.
“Splenic T cells of BALB/c mice vaccinated with naked A317 RNA (1 ug), day 49 (Example 7B, 10-1001) (cells without a defined receptor)” was tested, and the CD8+ CD4- splenic T cells: % cytokine-positive (IFNg+), intracellular cytokine staining [1] was 0.74% and the CD4+ CD8- splenic T cells: % cytokine-positive (TNFa+), intracellular cytokine staining [2] was 0.03%.
Substance “Splenic T cells of BALB/c mice vaccinated with naked A317 RNA, day 49 (Example 7C, 10-1018) (cells without a defined receptor)” has a CD8+ CD4- splenic T cells: % cytokine-positive (IFNg+), intracellular cytokine staining, 1 ug [3] of 1.68% and a CD4+ CD8- splenic T cells: % cytokine-positive (TNFa+), intracellular cytokine staining, 1 ug [4] of 0.03%.
Substance “Splenic T cells of BALB/c mice vaccinated with A317 RNA formulated with CNE17, day 49 (Example 7B, 10-1001) (cells without a defined receptor)” has a CD8+ CD4- splenic T cells: % cytokine-positive (IFNg+), intracellular cytokine staining, 1 ug [1] of 1.25% and a CD4+ CD8- splenic T cells: % cytokine-positive (TNFa+), intracellular cytokine staining, 1 ug [2] of 0.05%.
“Splenic T cells of BALB/c mice vaccinated with A317 RNA in liposomes RV01(01), day 49 (Example 7B, 10-1001) (cells without a defined receptor)” showed a CD8+ CD4- splenic T cells: % cytokine-positive (IFNg+), intracellular cytokine staining, 1 ug [1] of 3.69% and a CD4+ CD8- splenic T cells: % cytokine-positive (TNFa+), intracellular cytokine staining, 1 ug [2] of 0.09%.
“Splenic T cells of BALB/c mice vaccinated with VRPs expressing RSV-F (1E6 IU), day 49 (Example 7B, 10-1001) (cells without a defined receptor)” gave a CD8+ CD4- splenic T cells: % cytokine-positive (IFNg+), intracellular cytokine staining [1] of 3.48% and a CD4+ CD8- splenic T cells: % cytokine-positive (TNFa+), intracellular cytokine staining [2] of 0.1%.
“Splenic T cells of unvaccinated BALB/c mice, day 49 (Example 7C, 10-1018) (cells without a defined receptor)” was tested, and the CD8+ CD4- splenic T cells: % cytokine-positive (IFNg+), intracellular cytokine staining [3] was 0.01% and the CD4+ CD8- splenic T cells: % cytokine-positive (TNFa+), intracellular cytokine staining [4] was 0.01%.
Work on “Splenic T cells of BALB/c mice vaccinated with VRPs expressing RSV-F (1E6 IU), day 49 (Example 7C, 10-1018) (cells without a defined receptor)” yielded a CD8+ CD4- splenic T cells: % cytokine-positive (IFNg+), intracellular cytokine staining [3] of 2.45% and a CD4+ CD8- splenic T cells: % cytokine-positive (TNFa+), intracellular cytokine staining [4] of 0.07%.
Work on “Splenic T cells of BALB/c mice vaccinated with A317 RNA in liposomes RV01(01), day 49 (Example 7C, 10-1018) (cells without a defined receptor)” yielded a CD8+ CD4- splenic T cells: % cytokine-positive (IFNg+), intracellular cytokine staining, 10 ug [3] of 3.32% and a CD4+ CD8- splenic T cells: % cytokine-positive (TNFa+), intracellular cytokine staining, 1 ug [4] of 0.09%.
